Assay results taken from IntAct's records for PubMed 23803857.

B1: C-type lectin domain family 2 member A (Homo sapiens), Q6UVW9 (parent)
chain: MINPELRDGRADGFIHRIVPKLIQNWKIGLMCFLSIIITTVCIIMIATWSKHAKPVACSGDWLGVRDKCFYFSDDTRNWTASKIFCSLQKAELAQIDTQEDMEFLKRYAGTDMHWIGLSRKQGDSWKWTNGTTFNGWFEIIGNGSFAFLSADGVHSSRGFIDIKWICSKPKYFL
partner: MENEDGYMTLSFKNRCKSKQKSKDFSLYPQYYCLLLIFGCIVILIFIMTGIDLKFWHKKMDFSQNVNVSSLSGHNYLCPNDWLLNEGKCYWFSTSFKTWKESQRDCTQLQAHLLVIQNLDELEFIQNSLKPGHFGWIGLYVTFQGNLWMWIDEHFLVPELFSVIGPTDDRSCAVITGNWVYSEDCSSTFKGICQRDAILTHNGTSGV

Variants of: B1
Conditions: with klrf2_human KLRF2, D3W0D1

| Variant | effect of a mutation on the interaction |
| --- | --- |
| H155A | decreasing interaction strength |
| F148A | decreasing interaction strength |
| D152A | with no effect |
| T111A;D112A;M113A | with no effect |

Now from value to variant:

| effect of a mutation on the interaction | Variant |
| --- | --- |
| decreasing interaction strength | S157A;R158A |
| decreasing interaction strength | D162A |
| decreasing interaction strength | F160A;I161A |
